Data from the supplement of paper PMC12855868.

B1: library; numbered along this chain (parent)
chain: MAAAGGARLLRAASAVLGGPAGRWLHHAGSRAGSSGLLRNRGPGGSAEASRSLSVSARARSSSEDKITVHFINRDGETLTTKGKVGDSLLDVVVENNLDIDGFGACEGTLACSTCHLIFEDHIYEKLDAITDEENDMLDLAYGLTDRSRLGCQICLTKSMDNMTVRVPETVADARQSIDVGKTS

Variants of: B1
Test: scaled log2 fold change in cell abundance, elesclomol vs control (0 = silent mean, 1 = nonsense mean) (scaled log2 ratio); higher = higher viability under elesclomol (loss of FDX1 cuproptosis function)
Conditions: glucose 10 mM
Description: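 Deep mutational scan of full-length human FDX1: a pooled saturation-mutagenesis ORF library (every residue 2-184 mutated to all 19 amino acids plus stop, and silent codons where available) was expressed by lentivirus in FDX1-knockout ABC1 (14 days) or HEK293T (11 days) cells grown with elesclomol (ES) or DMSO control. Variant abundance came from ORF sequencing. The log2 fold change (ES vs control, mean of duplicates) was centred on the silent-variant mean (0) and scaled to the nonsense-variant mean (1). Higher values mean greater viability under ES, i.e. loss of FDX1 function in cuproptosis.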

[1] = with ABC1 FDX1 KO, elesclomol 5 nM, 14 days
[2] = with HEK293T FDX1 KO, elesclomol 40 nM, 11 days
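Further: variant abundance is its share of total variant reads in each endpoint sample, from next-generation sequencing of the integrated ORF PCR-amplified out of genomic DNA.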

Variant	scaled log2 fold change [1]	scaled log2 fold change [2]
E64T	0.135	-0.296
E64V	-0.321	-0.136
E64W	-0.394	–
E64Y	0.374	-0.0105
R74D	0.558	1.28
R74W	0.234	–
R74V	0.486	–
R74Q	0.323	-0.599
R74F	0.533	-0.0248
R74C	0.324	0.937
R74N	-1.08	1.31
R74M	-0.486	0.445
R74S	0.363	0.881
R74I	-0.228	1.14
R74H	-0.0392	-0.565
R74G	0.597	-0.839
R74A	-0.255	-0.8
R74L	0.361	-0.577
R74T	-0.0213	-0.108
R74Y	-0.0737	0.186
R74E	-0.261	–
R74P	0.11	–
F71A	0.63	0.751
F71N	1.07	1.17

Variant	scaled log2 fold change [1]	scaled log2 fold change [2]
F71D	1.1	1.37
F71E	1.02	1.5
F71M	0.0919	1.2
F71S	0.983	1.08
F71C	0.161	0.0168
F71V	0.271	-0.215
F71T	0.523	0.991
F71Y	0.112	-0.0161
F71G	1.09	0.752
F71W	0.102	-0.726
F71K	1.18	1.46
F71L	-0.0155	-0.376
F71H	1.22	1.17
F71P	1.18	1.13
F71Q	1.3	0.999
F71I	-0.753	-0.554
F71R	1.04	1.38
D65Y	0.323	0.288
D65Q	0.0546	0.293
D65C	0.243	-0.327
D65W	0.185	0.126
D65A	-0.0535	-0.237
D65V	0.161	-0.27
D65G	0.134	-0.165

Variant	scaled log2 fold change [1]	scaled log2 fold change [2]
D65H	0.192	0.0338
D65P	-0.000175	0.99
D65F	-0.512	-0.119
D65I	0.277	–
D65E	-0.139	0.087
D65K	-0.369	-0.531
D65N	-0.21	0.98
D65R	-0.395	-0.257
D65M	-0.334	-0.318
D65T	-0.192	–
D65S	-0.464	0.216
D65L	0.175	-0.119
D75F	-0.548	0.355
D75Q	0.457	–
D75C	-0.0427	-0.175
D75V	-0.11	-0.372
D75M	-0.0398	-0.59
D75A	-0.423	0.113
D75N	-0.329	0.364
D75K	-0.678	–
D75R	-0.271	-0.0753
D75L	0.0705	-0.00446
D75Y	-0.306	–
D75I	-0.502	-0.38

Variant	scaled log2 fold change [1]	scaled log2 fold change [2]
D75E	0.271	0.128
D75W	0.241	-0.146
D75H	0.273	–
D75S	-0.0315	–
D75T	-0.752	0.0498
K66F	-0.158	-0.676
K66M	-0.188	-0.226
K66R	0.114	-0.744
K66V	0.0478	-0.102
K66E	-0.297	-0.118
K66L	-0.00608	-0.145
K66H	0.0524	-0.795
K66D	-0.097	–
K66W	-0.5	-0.676
K66N	-0.167	0.199
K66P	-0.38	-0.254
K66T	0.0453	0.851
K66A	-0.0856	0.00324
K66S	-0.679	-0.304
K66I	-0.298	-0.755
K66G	0.301	0.245
K66C	-0.0989	-0.0245
K66Y	-0.0452	-0.0505
K66Q	-0.382	0.00416

Variant	scaled log2 fold change [1]	scaled log2 fold change [2]
V69K	1.22	1.85
V69S	0.684	0.329
V69A	0.0154	0.807
V69W	0.674	0.931
V69E	1.06	1.55
V69N	1.01	0.921
V69I	-0.0537	-0.536
V69G	1.19	1.06
V69Y	1.05	1.86
V69M	0.273	-0.0634
V69L	-0.537	-0.407
V69C	0.189	0.782
V69R	1.13	0.458
V69D	1.04	1.26
V69P	1.29	0.484
V69Q	1.14	0.294
V69H	1.16	1.1
V69T	0.119	0.953
V69F	-0.809	-0.24
H70A	0.42	-0.104
H70D	0.33	1.31
H70Q	0.0254	-0.0243
H70F	0.152	0.385
H70V	0.191	-1.13

Variant	scaled log2 fold change [1]	scaled log2 fold change [2]
H70P	0.933	0.983
H70N	0.0583	-0.00885
H70W	-0.0809	-0.922
H70C	0.396	–
H70T	-0.764	–
H70L	-0.219	-0.612
H70E	0.148	0.829
H70G	0.373	1.09
H70K	-0.215	0.573
H70M	-0.0655	0.0916
H70I	0.093	-0.0895
H70R	-0.349	-0.0802
H70S	0.277	-0.697
H70Y	0.0486	–
G76D	0.21	1.47
G76N	-0.0936	-0.272
G76A	-0.303	-0.122
G76I	0.0447	-0.0276
G76R	-0.0307	–
G76F	-0.264	-0.273
G76E	-0.688	0.0105
G76H	0.293	-0.385
G76T	0.217	–
G76M	0.321	-0.269

Variant	scaled log2 fold change [1]	scaled log2 fold change [2]
G76C	0.377	0.277
G76L	0.0165	-0.41
G76K	-0.353	-0.04
G76S	0.164	–
G76V	0.401	-0.808
G76Y	-0.241	0.296
G76P	0.585	0.000649
E77D	-0.61	-0.9
E77G	0.311	-0.306
E77F	-0.642	0.94
E77C	-0.00193	-0.0101
E77M	-0.575	-0.139
E77A	0.306	1.06
E77H	-0.0496	-0.0091
E77I	-0.922	-0.714
E77K	0.242	-0.341
E77N	0.0389	-0.504
E77L	0.262	0.144
N73Y	0.218	-0.741
N73C	-0.441	-0.308
N73K	0.136	1.39
N73H	-0.0805	-0.159
N73T	-0.183	–
N73E	0.311	0.823

Variant	scaled log2 fold change [1]	scaled log2 fold change [2]
N73D	0.282	-0.23
N73F	0.238	-0.334
N73Q	-0.00176	0.207
N73G	0.582	0.401
N73S	0.237	–
N73I	-1.24	–
N73P	0.17	-0.147
N73L	-0.0741	0.0359
N73R	0.219	-0.254
N73W	-0.0509	–
N73A	0.491	-0.233
N73V	0.102	0.976
N73M	-0.526	0.0726
T68H	0.349	-0.699
T68Q	0.0568	-0.103
T68W	0.0579	0.896
T68E	-0.318	-0.497
T68M	-0.209	0.641
T68R	-0.0852	-0.377
T68F	-0.000655	0.914
T68V	0.247	0.769
T68N	0.00412	-0.202
T68S	-0.0825	0.833
T68I	0.0915	0.0716

Variant	scaled log2 fold change [1]	scaled log2 fold change [2]
T68G	-0.0825	0.801
T68L	0.248	0.885
T68D	0.0867	0.164
T68A	-0.0418	-0.389
T68P	0.317	0.911
T68C	0.309	-0.148
T68Y	0.308	0.0848
T68K	-0.155	-0.329
I67K	0.691	0.44
I67N	0.44	0.681
I67T	0.0745	0.365
I67F	0.0413	-0.46
I67V	-0.37	0.832
I67P	0.222	-0.205
I67D	1.08	1.13
I67Q	0.436	0.135
I67C	0.2	-0.121
I67A	0.473	0.322
I67G	0.747	0.579
I67H	0.608	0.601
I67Y	0.135	-0.731
I67L	0.113	0.514
I67E	0.963	0.881
I67S	0.0219	0.253

Variant	scaled log2 fold change [1]	scaled log2 fold change [2]
I67W	0.658	-0.0492
I67M	0.35	0.129
I67R	0.504	0.363
I72M	-0.0135	0.0709
I72F	-0.0218	-0.0982
I72A	0.0764	-0.682
I72H	0.00982	-0.581
I72S	-0.00568	0.815
I72R	-0.783	0.539
I72K	0.155	-0.273
I72D	0.34	-0.132
I72G	-0.24	-0.556
I72W	0.00502	1.02
I72P	0.991	1.28
I72L	-0.315	-0.275
I72Y	-1.04	-0.583
I72Q	-0.00335	0.0078
I72N	0.0538	-0.293
I72V	-0.116	-1.01
I72E	-0.111	-0.295
I72C	0.238	-0.937
I72T	-0.0209	-0.405
